According to patent publication US20240209096A1 (INVETX, published 2024):
Numbering of substitutions follows the chain as printed. In names and notes the source's numbering stands. Values belong to the binder of their own block, whether it stands above or below them.

What was measured:
[1] = biological target: T1, canine FcRn (soluble large subunit p51 isoform X2 with 6xHis-tag, co-expressed with canine … (canine)); assay: SPR, IgG on protein L chip, FcRn in flow, pH 5.9, 1:1 fit; pH 5.9, 1:1 kinetic fit
T1 construct: Heterodimer made by co-expression in CHO cells, purified on HISTRAP FF, >95% pure by SEC; Both entries hold a 19-residue signal peptide at the N-terminus that should be removed (residues 1-19); also called FcRn complex
T1 chain: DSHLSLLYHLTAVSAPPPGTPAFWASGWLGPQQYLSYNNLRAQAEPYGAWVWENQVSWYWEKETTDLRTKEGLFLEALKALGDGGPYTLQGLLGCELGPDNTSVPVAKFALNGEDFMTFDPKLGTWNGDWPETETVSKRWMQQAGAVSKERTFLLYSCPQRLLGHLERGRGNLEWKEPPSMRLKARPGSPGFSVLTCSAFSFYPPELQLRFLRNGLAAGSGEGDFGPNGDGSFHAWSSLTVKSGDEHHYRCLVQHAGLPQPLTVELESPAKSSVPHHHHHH
T1 b2m: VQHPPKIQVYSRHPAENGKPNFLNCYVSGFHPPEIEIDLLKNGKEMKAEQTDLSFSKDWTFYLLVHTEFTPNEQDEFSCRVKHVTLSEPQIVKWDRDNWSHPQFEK
Procedure: (§1) The canine FcRn binding experiments at pH 5.9 and pH 7.4 were completed on a BIACORE™ T200 instrument. A Series S Protein L Sensor chip (Cytiva, Cat. No. BR29205137) was used to capture the antibody variants via the kappa (κ) light chain. The canine variants were captured onto the protein L chip at a flow rate of 10 μL/min for 60 seconds. Approximately 250 RUs of the variants were captured. For the low pH binding condition, 1×PBX-P+ (Cytiva, Cat. No. 28995084) was adjusted to pH 5.9. The canine FcRn was flowed over the sensor chip at 30 μL/min for 120 seconds contact time and 600 seconds dissociation time. Regeneration of the flow cells was completed by flowing over 10 mM glycine, pH 1.7 at 30 μL/min for 30 seconds. The data were evaluated by the BIACORE™ T200 Evaluation software (version 3.2.1) by fitting to a 1:1 kinetic interaction model.

[2] = biological target: T1, canine FcRn (soluble large subunit p51 …); assay: SPR, IgG on protein L chip, FcRn in flow, pH 5.9, 1:1 fit
Procedure: as §1

[3] = biological target: T1, canine FcRn (soluble large subunit p51 …); assay: SPR, IgG on protein L chip, FcRn in flow, pH 7.4, steady state fit
Procedure: as §1
A subset of the Fc variants was tested for binding to canine FcRn at pH 7.4. For these experiments, 1×PBX-P+ (Cytiva, Cat. No. 28995084) was adjusted to pH 7.4. […] In addition, the pH 7.4 data were evaluated by the BIACORE™ T200 Evaluation software (version 3.2.1) by fitting to steady state affinity model. The kinetic binding data for the variants at pH 7.4 along with the binding data at pH 5.9 for these variants are shown in Table 7 below.

[4] = biological target: T1, canine FcRn (soluble large subunit p51 …); assay: SPR, IgG on protein L chip, FcRn in flow, pH 5.9, kinetic data
Procedure: as §1

Kd [1]: 231 nM | koff [1]: 0.0927 s⁻¹ | kon [1]: 285000 M⁻¹ s⁻¹
B1: IgG with wild-type canine IgGB Fc (antibody)
heavy: EVQLVESGGDLVAPSQSLSITCTVSGMSLTSNSISWVRQPPGRGLEWLGTIWSNGGTDYTDAVKGRFTISRDNAKNTVYLQMNSLRAEDTAMYYCAQIYYYDADYLHWYFDFWGQGTLVTVSSASTTAPSVFPLAPSCGSTSGSTVALACLVSGYFPEPVTVSWNSGSLTSGVHTFPSVLQSSGLYSLSSMVTVPSSRWPSETFTCNVAHPASKTKVDKPVPKRENGRVPRPPDCPKCPAPEAAGGPSVFIFPPKPKDTLLIARTPEVTCVVVDLDPEDPEVQISWFVDGKQMQTAKTQPREEQFNGTYRVVSVLPIGHQDWLKGKQFTCKVNNKALPSPIERTISKARGQAHQPSVYVLPPSREELSKNTVSLTCLIKDFFPPDIDVEWQSNGQQEPESKYRTTPPQLDEDGSYFLYSKLSVDKSRWQRGDTFICAVMHEALHNHYTQESLSHSPG
light: EIVMTQSPASLSASQEEKVTITCRASEGISNNLAWYQQKPGQAPKLLIHATSSLQTGVPSRFSGSGSGTDFTLTISSLQPEDFATYYCQQGYQFPLTFGQGTKVEIKRNDAQPAVYLFQPSPDQLHTGSASVVCLLNSFYPKDINVKWKVDGVIQDTGIQESVTEQDKDSTYSLSSTLTMSSTEYLSHELYSCEITHKSLPSTLIKSFQRSECQRVD
notes: Full chains; canine IgGB constant domain with MALA mutations; variable domains of WO 2023/97275; also called Wild-type Fc

Kd [2]: 15.7 nM | koff [2]: 0.0318 s⁻¹ | kon [2]: 2.04e+06 M⁻¹ s⁻¹ | Kd [3]: 2170 nM | Kd [4]: 15.7 nM | koff [4]: 0.0318 s⁻¹ | kon [4]: 2.04e+06 M⁻¹ s⁻¹
B2: IgG with canine IgGB Fc variant N434H, T286Y (antibody)
heavy: B1 heavy with T295Y, N445H
light: B1 light
notes: Full chains; canine IgGB constant domain with MALA mutations; variable domains of WO 2023/97275
